Measurements: US20170129959A1 (OSE IMMUNOTHERAPEUTICS, published 2017)
Where a chain is given by its changes, count along the chain named. Numbers in names are those of the source. Where “and” joins values, the source holds several entries; their conditions need not be identical. Equal entries are not always repeated.

How the values were obtained:
[1] = target: T1, Human CD127 (IL-7 receptor alpha chain) expressed on cells (human, UniProt P16871 21-459); assay: cell-based or functional assay
T1 chain: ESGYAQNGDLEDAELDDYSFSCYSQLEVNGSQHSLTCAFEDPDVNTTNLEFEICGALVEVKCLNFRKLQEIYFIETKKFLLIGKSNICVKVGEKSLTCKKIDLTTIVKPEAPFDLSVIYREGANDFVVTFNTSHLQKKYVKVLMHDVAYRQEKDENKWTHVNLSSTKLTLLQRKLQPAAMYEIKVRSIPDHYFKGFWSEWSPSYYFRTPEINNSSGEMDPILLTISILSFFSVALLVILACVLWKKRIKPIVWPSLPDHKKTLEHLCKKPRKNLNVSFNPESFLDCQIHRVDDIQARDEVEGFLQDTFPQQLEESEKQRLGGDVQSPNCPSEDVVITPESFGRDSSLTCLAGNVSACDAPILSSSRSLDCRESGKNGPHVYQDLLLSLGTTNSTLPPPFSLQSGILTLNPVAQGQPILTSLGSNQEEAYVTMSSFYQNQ

[2] = target: T2, Recombinant CD127 Fc Chimera (10975-H03H, Sino Biological) (human, UniProt P16871 21-239); assay: ELISA, human CD127Fc coated, revealed with anti-human kappa antibody; printed as ED 50
T2 construct: Bought protein; also called hCD127-Ig; human CD127Fc; not shown: constant fragment of an immunoglobulin
T2 chain: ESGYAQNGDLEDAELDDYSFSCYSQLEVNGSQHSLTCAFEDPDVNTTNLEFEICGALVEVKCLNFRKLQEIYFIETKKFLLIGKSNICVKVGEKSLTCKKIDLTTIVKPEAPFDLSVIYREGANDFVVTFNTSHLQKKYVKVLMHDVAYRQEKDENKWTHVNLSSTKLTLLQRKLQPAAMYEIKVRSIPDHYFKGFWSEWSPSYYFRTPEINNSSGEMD

[3] = target: T2, Recombinant CD127 Fc Chimera …; assay: ELISA, coated human CD127Fc, revealed with an anti-human kappa antibody
[4] = target: T3, Recombinant hCD127 (Sino Biologicals, reference 10975-H08H) (human, UniProt P16871 21-239); assay: ELISA on immobilised recombinant hCD127; antibody stored 7 days at 37 °C
T3 construct: Bought protein; also called recombinant hCD127 antigen; rCD127
T3 chain: T2 chain
Protocol: (§1) FIG. 15. Stability assay of humanized versus Rat anti-CD127 antibodies. Antibody concentrations was measured by ELISA after 7 days at 37° C. (Rat N13B2 wt (+) or humanized N13B2 h3 (square)) and at −80° C. (Rat N13B2 wt (X) or humanized N13B2 h3 (triangle)) and after four frost/defrost events (diamonds).
(§2) Humanized and chimeric purified N13B2-G1 were incubated at 37° C. or at −80° C. for 7 days. Two assays were used to measure stability of antibody: binding anti-CD127 by ELISA assay, and aggregate formation by gel filtration. For activity ELISA assay, recombinant hCD127 (Sino Biologicals, Beijing, China; reference 10975-H08H) was immobilized on plastic at lpg/ml and dilutions of supernatant were added to measure binding. […] For analysis of aggregate formation, sample was analysed on gel filtration chromatography column (Superdex 200, 10/300GL, GeHealthcare) to separate and evaluate aggregate and monomer from samples.

[5] = target: T3, Recombinant hCD127 (Sino Biologicals, …); assay: ELISA on immobilised recombinant hCD127; antibody stored 7 days at -80 °C
Protocol: as §1, §2

[6] = target: T3, Recombinant hCD127 (Sino Biologicals, …); assay: ELISA on immobilised recombinant hCD127; antibody after four frost/defrost events
[7] = target: T3, Recombinant hCD127 (Sino Biologicals, …); assay: ELISA on coated recombinant hCD127, anti-human kappa detection; antibody stored 7 days at 37 °C; printed as ED 50
Protocol: as §1, §2

[8] = target: T3, Recombinant hCD127 (Sino Biologicals, …); assay: ELISA on coated recombinant hCD127, anti-human kappa detection; antibody stored 7 days at -80 °C; printed as ED 50
Protocol: as §1, §2

[9] = target: T3, Recombinant hCD127 (Sino Biologicals, …); assay: ELISA on coated recombinant hCD127, anti-human kappa detection; antibody after 4 frost/defrost events; printed as ED 50
[10] = target: T1, Human CD127 (IL-7 receptor alpha chain) …; assay: cell-based or functional assay
[11] = target: T3, Recombinant hCD127 (Sino Biologicals, …); assay: ELISA, recombinant hCD127 coated on plastic at 1 µg/ml, antibody titrated; printed as ED 50
Protocol: FIG. 4. The Anti CD127 activity of the new antibody N13B2 was measured by ELISA assay using a recombinant hCD127 antigen. OD 450 nm: optical density at 450 nm. A. The CD127 binding activity of the N13B2 (full circle) was compared to the previous antibody generation (MD707-1 (empty diamond), 3 (empty triangle) and 6 (full square)). N13B2 appears as the most efficient binder in the assay. B. The CD127 activity between different N13B2 formats (rat, IgG1 (circle) or IgG4 (square)) was compared. No significant difference in binding activity was observed.
(§3) The binding activity of the anti hCD127 antibody was assessed by ELISA (Enzyme-linked immunosorbent assay). For the ELISA assay, recombinant hCD127 (Sino Biologicals, Beijing, China; reference 10975-H08H) was immobilized on plastic at 1 μg/ml and purified antibody were added to measure binding.

[12] = target: T1, Human CD127 (IL-7 receptor alpha chain) …; assay: cell-based or functional assay
[13] = target: T2, Recombinant CD127 Fc Chimera …; assay: SPR (Biacore 3000), CD127Fc immobilised on CM5 chip, antibody injected, Bivalent analyte model; separate experiment
Protocol: (§4) A CM5 chip (GE healthcare) was activated by injection of NHS/EDC mix for 7 min. […] The free reactive residues were inactivated by the injection of 1M ethanolamine pH8.5. […] The injection rate was set at 40 μL/min, the association was measured for 3 min and dissociation for 10 min. Between each cycle of the analysis, the chip was regenerated by injection of a solution of 5M MgCl2 for 60 s.

[14] = target: T3, Recombinant hCD127 (Sino Biologicals, …); assay: ELISA on immobilised recombinant hCD127
Protocol: as §3

[15] = target: T2, Recombinant CD127 Fc Chimera …; assay: SPR (Biacore 3000), CD127Fc immobilised on CM5 chip, antibody injected, Bivalent analyte model
Protocol: FIG. 3. (A) Binding studies of rat N13B2 anti-CD127 antibody. N13B2 antibody or MD707-1 were injected on a CD127 immobilized antigen at different concentration. Resp. diff: Response difference. Time: time in sec (total duration: 20 min). Blk: blank (no antibody). The association and dissociation curves were analyzed with model “Bivalent analyte” on BIAeval 4 software.
as §4

B1: N13B2-h2 (humanized N13B2) (antibody, V domains shown)
VH: QVQLVESGGGLVKPGGSLRLSCAVSGFTLSDYYMAWIRQAPGKGLEWVSTISASGLRTYYPDSVKGRFTISRDNAKNSLYLQMNSLRAEDTAVYYCARPMSAHYGFNYFDYWGQGTLVTVSS
VL: EIVMTQSPATLSVSPGERATLSCRTSEDIYNGLAWYQQKPGQAPRLLIYSANSLHIGIPARFSGSGSGTEFTLTISSLQSEDFAVYYCQQYYDYPLAFGGGTKVEIK
notes: Variable regions only
IC 50 of inhibition of IL7 induced P-STAT5 on T lymphocytes (0.1 ng/ml rhIL-7) [1]: 18.7 ng/mL | EC50 [2]: 0.6 ng/mL

B2: N13B2-h1 (humanized N13B2) (antibody, V domains shown)
VH: B1 VH with I37V, S49A, N74D
VL: B1 VL with I48V, F71Y, Y87F
IC 50 of inhibition of IL7 induced P-STAT5 on T lymphocytes (0.1 ng/ml rhIL-7) [1]: 63.8 ng/mL | EC50 (read off the curve) [3]: ~2 ng/mL | EC50 [2]: 2.4 ng/mL

B3: N13B2-h3 (humanized N13B2) (antibody, IgG4, V domains shown)
VH: B1 VH with M100L
VL: B1 VL with N31Q, S53T
notes: Variable regions only
IC 50 of inhibition of IL7 induced P-STAT5 on T lymphocytes (0.1 ng/ml rhIL-7) [1]: 21.2 ng/mL | EC50 (read off the curve) [4]: ~1 ng/mL | EC50 (read off the curve) [5]: ~1 ng/mL | EC50 [2]: 0.6 ng/mL | EC50 (read off the curve) [6]: ~2 ng/mL | EC50 [7]: 1.1 ng/mL | EC50 [8]: 1.3 ng/mL | EC50 [9]: 1.7 ng/mL

B4: MD707-3 (rat anti-human CD127 antibody, previous generation) (antibody, V domains shown)
VH: AVHLVESGGGLVQPKESLKISCAASGFTFSNAAMYWVRQAPGKGLEWVARIRTKANNYATYYAESVKGRFTISRDDSKSMVYLQMDNVKTDDTAMYYCIVVVLTTTRDYFDYWGQGVMVTVSS
VL: DIVLTQAPLSVSVTPGESASISCRSSQSLLTVKGITSLYWFLQKPGKSPQLLIYRMSNLASGVPDRFRGSGSETDFTLKISKVETEDVGVYYCAQFLEYPHTFGAGTKLELKR
IC50 on P-STAT5 induced by 100 pg/ml of rhIL7 [10]: 1.09 ng/mL | EC50 [11]: 293 ng/mL

B5: N13B2-G4 (chimeric N13B2, human IgG4 Fc S228P, human CL kappa) (antibody)
heavy: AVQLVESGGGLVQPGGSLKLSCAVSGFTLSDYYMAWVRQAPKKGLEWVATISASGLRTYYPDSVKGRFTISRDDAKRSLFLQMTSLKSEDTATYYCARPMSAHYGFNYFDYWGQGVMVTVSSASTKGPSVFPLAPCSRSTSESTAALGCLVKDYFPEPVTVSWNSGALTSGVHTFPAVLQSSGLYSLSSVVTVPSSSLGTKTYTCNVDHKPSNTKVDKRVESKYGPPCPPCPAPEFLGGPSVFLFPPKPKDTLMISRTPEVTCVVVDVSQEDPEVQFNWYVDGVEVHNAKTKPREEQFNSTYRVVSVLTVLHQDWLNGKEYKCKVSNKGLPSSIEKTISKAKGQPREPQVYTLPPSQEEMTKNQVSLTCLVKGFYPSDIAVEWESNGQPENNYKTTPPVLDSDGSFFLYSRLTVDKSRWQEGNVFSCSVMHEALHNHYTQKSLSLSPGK
light: DIQMTQSPASLSASLGETVTIECRTSEDIYNGLAWYQQKPGKSPQLLVYSANSLHIGVPSRFSGSGSGTQYSLKINSLQFEDVASYFCQQYYDYPLAFGSGTKLEIKRTVAAPSVFIFPPSDEQLKSGTASVVCLLNNFYPREAKVQWKVDNALQSGNSQESVTEQDSKDSTYSLSSTLTLSKADYEKHKVYACEVTHQGLSSPVTKSFNRGEC
notes: also called cN13B2-G4; N13B2-G4m
inhibition of STAT5 phosphorylation in human PBMC [12]: > 50 % inhibition at 50 ng/ml and > 80 % inhibition at 100 ng/ml (0.1 ng/ml IL-7) and > 90 % inhibition at 100 ng/ml (5 ng/ml IL-7) | IC50 on P-STAT5 induced by 100 pg/ml of rhIL7 [10]: 0.037 ng/mL | EC50 [11]: 12.6 ng/mL | Ka [13]: 5.89e+09 M⁻¹ | Kd [13]: 0.17 nM | koff [13]: 3.41e-06 s⁻¹ | kon [13]: 20100 M⁻¹ s⁻¹

B6: N13B2-G1 (chimeric N13B2, human IgG1 Fc E333A, human CL kappa) (antibody)
heavy: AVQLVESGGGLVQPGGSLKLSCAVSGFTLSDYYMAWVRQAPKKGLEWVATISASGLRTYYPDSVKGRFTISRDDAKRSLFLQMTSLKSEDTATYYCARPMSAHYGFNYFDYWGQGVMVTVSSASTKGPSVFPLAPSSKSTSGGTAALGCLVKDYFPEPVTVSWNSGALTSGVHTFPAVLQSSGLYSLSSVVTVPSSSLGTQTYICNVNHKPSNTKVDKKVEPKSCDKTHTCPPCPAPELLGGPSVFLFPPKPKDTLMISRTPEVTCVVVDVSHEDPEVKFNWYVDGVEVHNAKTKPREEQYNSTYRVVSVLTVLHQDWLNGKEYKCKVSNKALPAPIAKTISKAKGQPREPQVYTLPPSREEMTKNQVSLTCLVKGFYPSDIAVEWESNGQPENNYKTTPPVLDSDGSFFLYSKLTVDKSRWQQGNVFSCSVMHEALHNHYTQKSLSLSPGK
light: B5 light
notes: also called cN13B2-G1; N13B2-G1m
inhibition of STAT5 phosphorylation in human PBMC [12]: > 50 % inhibition at 50 ng/ml and > 80 % inhibition at 100 ng/ml (0.1 ng/ml IL-7) and > 90 % inhibition at 100 ng/ml (5 ng/ml IL-7) | IC50 on P-STAT5 induced by 100 pg/ml of rhIL7 [10]: 0.028 ng/mL | EC50 [11]: 12 ng/mL | Ka [13]: 2.65e+09 M⁻¹ | Kd [13]: 0.377 nM | koff [13]: 5.62e-05 s⁻¹ | kon [13]: 149000 M⁻¹ s⁻¹

B7: N13B2 wt (antibody, V domains shown)
VH: AVQLVESGGGLVQPGGSLKLSCAVSGFTLSDYYMAWVRQAPKKGLEWVATISASGLRTYYPDSVKGRFTISRDDAKRSLFLQMTSLKSEDTATYYCARPMSAHYGFNYFDYWGQGVMVTVSS
VL: DIQMTQSPASLSASLGETVTIECRTSEDIYNGLAWYQQKPGKSPQLLVYSANSLHIGVPSRFSGSGSGTQYSLKINSLQFEDVASYFCQQYYDYPLAFGSGTKLEIKR
notes: also called Rat N13B2 wt
IC 50 of inhibition of IL7 induced P-STAT5 on T lymphocytes (0.1 ng/ml rhIL-7) [1]: 50.2 ng/mL | EC50 (read off the curve) [3]: ~3 ng/mL | EC50 (read off the curve) [4]: ~4 ng/mL | EC50 (read off the curve) [5]: ~3 ng/mL | EC50 [2]: 3 ng/mL | EC50 [7]: 3.5 ng/mL | EC50 [8]: 3.6 ng/mL

B8: N13B2 (rat anti-human CD127 monoclonal antibody) (antibody, V domains shown)
VH: B7 VH
VL: B7 VL
notes: Rat hybridoma antibody; It was detected with anti-rat kappa; also called rat N13B2; N13B2 mAb
inhibition of STAT5 phosphorylation in human PBMC [12]: > 50 % inhibition at 50 ng/ml and > 80 % inhibition at 100 ng/ml (0.1 ng/ml IL-7) and > 90 % inhibition at 100 ng/ml (5 ng/ml IL-7) | IC50 on P-STAT5 induced by 100 pg/ml of rhIL7 [10]: 0.043 ng/mL | EC50 (read off the curve) [14]: ~60 ng/mL | EC50 [11]: 65.6 ng/mL | Ka [15]: 1.26e+10 M⁻¹ | Kd [15]: 0.0796 nM | koff [15]: 1.6e-05 s⁻¹ | kon [15]: 201000 M⁻¹ s⁻¹ | Ka [13]: 2.03e+10 M⁻¹ | Kd [13]: 0.0493 nM | koff [13]: 4.75e-06 s⁻¹ | kon [13]: 96300 M⁻¹ s⁻¹
